Test results published in publication PMC7893005.

Tests used:
[1] = target: acetylated, soluble type I collagen from rat tail, natively folded (triple-helical) (rat) (UniProt P02454)
[2] = target: gelatin derived from type I collagen from rat tail (acetylated collagen denatured at 95 °C for 10 min) (rat) (UniProt P02454)

Substance	KM of degradation of natively folded type I collagen (Michaelis-Menten kinetics, discontinuous cleavage assay with fluorescamine detection of neo-N-termini, 25 °C) [1]	KM of gelatin degradation (Michaelis-Menten kinetics, discontinuous cleavage assay with fluorescamine detection of neo-N-termini, 25 °C) [2]
ColG collagenase unit from Clostridium histolyticum (from UniProt Q9X721 119-789) (enzyme)	3.4 µM	1.35 µM
ColQ1 collagenase unit (Y94-G765) from Bacillus cereus strain Q1 (from UniProt B9J3S4 94-765) (enzyme)	1.72 µM	1.36 µM
